Like-named read-outs stand apart in the source and are kept apart here.
What was measured:
[1] = target: T1, T3 DNA ligase (Enterobacteria phage T3?) (UniProt P07717); conditions: T4 ligase buffer, 25 C 1 h
T1 sequence: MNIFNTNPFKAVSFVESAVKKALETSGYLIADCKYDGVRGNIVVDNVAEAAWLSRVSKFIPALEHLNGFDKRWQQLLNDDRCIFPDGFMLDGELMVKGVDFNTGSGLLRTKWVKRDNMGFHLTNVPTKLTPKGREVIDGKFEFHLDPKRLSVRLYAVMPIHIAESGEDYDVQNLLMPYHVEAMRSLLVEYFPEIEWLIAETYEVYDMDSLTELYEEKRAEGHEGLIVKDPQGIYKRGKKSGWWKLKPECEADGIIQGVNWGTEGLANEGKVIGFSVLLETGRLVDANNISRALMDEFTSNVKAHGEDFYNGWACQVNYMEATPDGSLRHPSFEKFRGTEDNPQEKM

[2] = target: T2, T4 DNA ligase (Enterobacteria phage T4?) (UniProt P00970)
T2 sequence: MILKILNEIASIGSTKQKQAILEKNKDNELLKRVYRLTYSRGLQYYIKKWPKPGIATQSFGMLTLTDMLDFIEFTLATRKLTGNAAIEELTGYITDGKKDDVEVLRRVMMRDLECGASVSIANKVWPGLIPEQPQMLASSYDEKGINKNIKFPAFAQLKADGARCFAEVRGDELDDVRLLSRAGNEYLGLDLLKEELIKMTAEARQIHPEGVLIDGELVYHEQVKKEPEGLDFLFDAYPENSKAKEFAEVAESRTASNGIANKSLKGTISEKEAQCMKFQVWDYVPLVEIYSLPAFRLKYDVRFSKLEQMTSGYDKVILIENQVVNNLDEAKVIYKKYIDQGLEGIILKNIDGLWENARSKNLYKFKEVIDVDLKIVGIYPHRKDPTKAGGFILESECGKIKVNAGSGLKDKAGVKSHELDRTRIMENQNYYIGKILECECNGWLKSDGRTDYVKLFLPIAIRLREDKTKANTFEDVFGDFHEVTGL

[3] = target: T3, T7 DNA ligase (Enterobacteria phage T7?) (UniProt P00969)
T3 sequence: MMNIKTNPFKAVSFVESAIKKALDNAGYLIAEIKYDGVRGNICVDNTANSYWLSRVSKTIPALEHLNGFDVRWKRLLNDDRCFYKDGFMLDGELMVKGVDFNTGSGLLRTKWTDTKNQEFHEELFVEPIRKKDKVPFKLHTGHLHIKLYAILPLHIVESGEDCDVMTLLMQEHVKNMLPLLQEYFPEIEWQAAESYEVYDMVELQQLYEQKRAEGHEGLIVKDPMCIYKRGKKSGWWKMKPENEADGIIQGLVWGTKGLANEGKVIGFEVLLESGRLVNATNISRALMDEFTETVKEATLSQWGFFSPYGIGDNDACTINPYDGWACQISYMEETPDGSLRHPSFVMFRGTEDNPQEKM

[4] = target: T4, PBCV-1 DNA ligase (Paramecium bursaria Chlorella virus 1?) (UniProt O41026); conditions: T4 ligase buffer, 25 C 1 h; library yield 50%
T4 sequence: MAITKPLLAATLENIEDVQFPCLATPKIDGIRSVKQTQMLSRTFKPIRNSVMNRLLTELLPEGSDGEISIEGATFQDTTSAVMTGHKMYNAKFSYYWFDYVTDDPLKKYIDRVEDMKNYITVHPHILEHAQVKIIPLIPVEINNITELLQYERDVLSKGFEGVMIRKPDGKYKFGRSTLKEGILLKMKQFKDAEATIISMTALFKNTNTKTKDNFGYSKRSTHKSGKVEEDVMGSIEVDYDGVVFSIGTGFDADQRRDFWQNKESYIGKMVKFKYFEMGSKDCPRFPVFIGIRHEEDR

[5] = system: T5, Human DNA ligase 3 (hLig3 beta) (Homo sapiens), P49916-4
T5 sequence: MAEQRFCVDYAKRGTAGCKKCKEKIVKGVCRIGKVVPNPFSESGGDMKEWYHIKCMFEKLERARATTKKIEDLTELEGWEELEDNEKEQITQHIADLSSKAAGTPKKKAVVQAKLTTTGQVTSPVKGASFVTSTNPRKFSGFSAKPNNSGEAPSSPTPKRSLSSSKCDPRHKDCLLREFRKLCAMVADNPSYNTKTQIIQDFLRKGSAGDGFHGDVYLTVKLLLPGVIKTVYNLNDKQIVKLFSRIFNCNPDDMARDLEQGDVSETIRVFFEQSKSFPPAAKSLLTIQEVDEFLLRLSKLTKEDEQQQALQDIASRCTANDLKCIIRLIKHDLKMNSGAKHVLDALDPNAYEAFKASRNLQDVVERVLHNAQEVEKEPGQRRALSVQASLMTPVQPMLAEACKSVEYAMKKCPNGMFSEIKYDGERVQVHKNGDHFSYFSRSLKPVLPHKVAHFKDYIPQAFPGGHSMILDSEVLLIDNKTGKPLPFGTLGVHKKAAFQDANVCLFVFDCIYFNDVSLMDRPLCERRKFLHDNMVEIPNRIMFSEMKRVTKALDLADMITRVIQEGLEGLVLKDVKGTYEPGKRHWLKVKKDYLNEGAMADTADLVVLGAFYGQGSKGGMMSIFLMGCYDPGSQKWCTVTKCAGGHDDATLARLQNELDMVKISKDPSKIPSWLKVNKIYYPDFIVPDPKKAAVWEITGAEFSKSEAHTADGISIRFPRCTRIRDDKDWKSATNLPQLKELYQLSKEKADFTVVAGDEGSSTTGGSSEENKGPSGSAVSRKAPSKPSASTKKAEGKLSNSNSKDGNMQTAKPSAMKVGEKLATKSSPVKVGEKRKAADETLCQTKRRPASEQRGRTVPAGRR

Which results are given for “NNNN [randomized four-base 5' overhang hairpin library]”?
activity (% ligation fidelity) [1]: 59.2; activity (% ligation fidelity) ([2]; SMRT sequencing, T4 ligase buffer, 10 mM MgCl2, 1 mM ATP, 25 C 1 h): 72.4; activity (% ligation fidelity) ([2]; with 6% PEG 6000): 66.9; activity (% ligation fidelity) ([3]; T4 ligase buffer, 25 C 1 h, library yield 20%): 88.8; activity (% ligation fidelity) ([3]; with 6% PEG 6000): 77.9; activity (% ligation fidelity) [4]: 77.2; activity (% ligation fidelity) ([5]; T4 ligase buffer, 25 C 1 h, text p210 prints 56%): 44; activity (% ligation fidelity) ([5]; with 6% PEG 6000): 49.7
